This is an account of results in patent publication US20220195008A1 (published 2022).

Experiment [1] addresses T1, MAGE-A12 peptide on HLA-C*07:01 (human).
T1 peptide: VRIGHLYIL
Nature of the experiment: killing.

Experiment [2] concerns the target T1, MAGE-A12 peptide on HLA-C*07:01. Nature of the experiment: cytokine release.
Experiment [3] concerns the target T2, MAGE-A12 peptide on HLA-C*07:02 (human).
T2 peptide: VRIGHLYIL
Nature of the experiment: cytokine release.

B1: anti-MAGE-A12 TCR 502 (TCR, V domains shown)
Valpha: GENVEQHPSTLSVQEGDSAVIKCTYSDSASNYFPWYKQELGKRPQLIIDIRSNVGEKKDQRIAVTLNKTAKHFSLHITETQPEDSAVYFCAASGATDKLIFGTGTRLQVFP
Vbeta: EADIYQTPRYLVIGTGKKITLECSQTMGHDKMYWYQQDPGMELHLIHYSYGVNSTEKGDLSSESTVSRIRTEHFPLTLESARPSHTSQYLCASSGGHEQYFGPGTRLTVT
As for B1, the binding result in experiment [1] was “recognises”.

B2: anti-MAGE-A12 TCR FM8 (TCR, V domains shown)
Valpha: AQTVTQSQPEMSVQEAETVTLSCTYDTSESDYYLFWYKQPPSRQMILVIRQEAYKQQNATENRFSVNFQKAAKSFSLKISDSQLGDAAMYFCAYRSAQGGSEKLVFGKGTKLTVNP
Vbeta: ETGVTQTPRHLVMGMTNKKSLKCEQHLGHNAMYWYKQSAKKPLELMFVYSLEERVENNSVPSRFSPECPNSSHLFLHLHTLQPEDSALYLCASSQTTYYNEQFFGPGTRLTVL
B2: the binding result is listed as “no recognition” in experiment [2] and “recognises” in experiment [3].
